Assay results: patent US20200055896

Legend:
[1] = target: EP probe: fluorescence-quenched peptide of the homologous region of murine FGF21
[2] = target: T1, GP probe: fluorescence-quenched peptide of the region flanking the C-terminal human FGF21 cleavage site (VGPSQG)
T1 chain: VGPSQGK

[3] = target: ANPFAP, internally-quenched FRET peptide substrate for FAP (Li et al. 2012)

B1: N-terminal octa-His-tagged mouse FAP protein containing the extracellular domain (residues L26-D761) (protein)
chain: LRPSRVYKPEGNTKRALTLKDILNGTFSYKTYFPNWISEQEYLHQSEDDNIVFYNIETRESYIILSNSTMKSVNATDYGLSPDRQFVYLESDYSKLWRYSYTATYYIYDLQNGEFVRGYELPRPIQYLCWSPVGSKLAYVYQNNIYLKQRPGDPPFQITYTGRENRIFNGIPDWVYEEEMLATKYALWWSPDGKFLAYVEFNDSDIPIIAYSYYGDGQYPRTINIPYPKAGAKNPVVRVFIVDTTYPHHVGPMEVPVPEMIASSDYYFSWLTWVSSERVCLQWLKRVQNVSVLSICDFREDWHAWECPKNQEHVEESRTGWAGGFFVSTPAFSQDATSYYKIFSDKDGYKHIHYIKDTVENAIQITSGKWEAIYIFRVTQDSLFYSSNEFEGYPGRRNIYRISIGNSPPSKKCVTCHLRKERCQYYTASFSYKAKYYALVCYGPGLPISTLHDGRTDQEIQVLEENKELENSLRNIQLPKVEIKKLKDGGLTFWYKMILPPQFDRSKKYPLLIQVYGGPCSQSVKSVFAVNWITYLASKEGIVIALVDGRGTAFQGDKFLHAVYRKLGVYEVEDQLTAVRKFIEMGFIDEERIAIWGWSYGGYVSSLALASGTGLFKCGIAVAPVSSWEYYASIYSERFMGLPTKDDNLEHYKNSTVMARAEYFRNVDYLLIHGTADDNVHFQNSAQIAKALVNAQVDFQAMWYSDQNHGISSGRSQNHLYTHMTHFLKQCFSLSD
cleavage of fluorescence-quenched peptide (FRET-quench assay) [1]: purified recombinant mouse FAP protein cleaved the GP but not GG or EP probes | catalytic efficiency (Michaelis-Menten kinetics) [2]: mouse FAP exhibited a lower catalytic efficiency than human FAP, mainly due to a reduced kcat | cleavage of fluorescence-quenched peptide (FRET-quench assay) [2]: purified recombinant mouse FAP protein cleaved the GP but not GG or EP probes

B2: FAP in mouse plasma (protein)
chain: IVLRPSRVYKPEGNTKRALTLKDILNGTFSYKTYFPNWISEQEYLHQSEDDNIVFYNIETRESYIILSNSTMKSVNATDYGLSPDRQFVYLESDYSKLWRYSYTATYYIYDLQNGEFVRGYELPRPIQYLCWSPVGSKLAYVYQNNIYLKQRPGDPPFQITYTGRENRIFNGIPDWVYEEEMLATKYALWWSPDGKFLAYVEFNDSDIPIIAYSYYGDGQYPRTINIPYPKAGAKNPVVRVFIVDTTYPHHVGPMEVPVPEMIASSDYYFSWLTWVSSERVCLQWLKRVQNVSVLSICDFREDWHAWECPKNQEHVEESRTGWAGGFFVSTPAFSQDATSYYKIFSDKDGYKHIHYIKDTVENAIQITSGKWEAIYIFRVTQDSLFYSSNEFEGYPGRRNIYRISIGNSPPSKKCVTCHLRKERCQYYTASFSYKAKYYALVCYGPGLPISTLHDGRTDQEIQVLEENKELENSLRNIQLPKVEIKKLKDGGLTFWYKMILPPQFDRSKKYPLLIQVYGGPCSQSVKSVFAVNWITYLASKEGIVIALVDGRGTAFQGDKFLHAVYRKLGVYEVEDQLTAVRKFIEMGFIDEERIAIWGWSYGGYVSSLALASGTGLFKCGIAVAPVSSWEYYASIYSERFMGLPTKDDNLEHYKNSTVMARAEYFRNVDYLLIHGTADDNVHFQNSAQIAKALVNAQVDFQAMWYSDQNHGISSGRSQNHLYTHMTHFLKQCFSLSD
cleavage of the GP probe in mouse plasma, with cpd60 and KYP-2047 [2]: FAP is the major enzyme responsible for the cleavage of the GP probe in plasma

B3: Human prolyl oligopeptidase (PREP, 4308-SE) (protein)
chain: MLSLQYPDVYRDETAVQDYHGHKICDPYAWLEDPDSEQTKAFVEAQNKITVPFLEQCPIRGLYKERMTELYDYPKYSCHFKKGKRYFYFYNTGLQNQRVLYVQDSLEGEARVFLDPNILSDDGTVALRGYAFSEDGEYFAYGLSASGSDWVTIKFMKVDGAKELPDVLERVKFSCMAWTHDGKGMFYNSYPQQDGKSDGTETSTNLHQKLYYHVLGTDQSEDILCAEFPDEPKWMGGAELSDDGRYVLLSIREGCDPVNRLWYCDLQQESSGIAGILKWVKLIDNFEGEYDYVTNEGTVFTFKTNRQSPNYRVINIDFRDPEESKWKVLVPEHEKDVLEWIACVRSNFLVLCYLHDVKNILQLHDLTTGALLKTFPLDVGSIVGYSGQKKDTEIFYQFTSFLSPGIIYHCDLTKEELEPRVFREVTVKGIDASDYQTVQIFYPSKDGTKIPMFIVHKKGIKLDGSHPAFLYGYGGFNISITPNYSVSRLIFVRHMGGILAVANIRGGGEYGETWHKGGILANKQNCFDDFQCAAEYLIKEGYTSPKRLTINGGSNGGLLVAACANQRPDLFGCVIAQVGVMDMLKFHKYTIGHAWTTDYGCSDSKQHFEWLVKYSPLHNVKLPEADDIQYPSMLLLTADHDDRVVPLHSLKFIATLQYIVGRSRKQSNPLLIHVDTKAGHGAGKPTAKVIEEVSDMFAFIARCLNVDWIP
cleavage of quenched-FRET peptide, 10 nM enzyme [3]: both FAP and PREP efficiently cleave ANPFAP in vitro | cleavage of fluorescence-quenched peptide (FRET-quench assay), 1 nM enzyme [2]: both enzymes readily cleaved the GP peptide
